Reference: patent US20240101645A1 (HENRY M JACKSON FOUNDATION FOR THE ADVANCEMENT OF MILITARY …, published 2024)
Changes are numbered by the printed parent chain.

T1: MERS-CoV spike antigens (bead panel) (MERS-CoV, UniProt K9N5Q8 18-1296)
T1 sequence: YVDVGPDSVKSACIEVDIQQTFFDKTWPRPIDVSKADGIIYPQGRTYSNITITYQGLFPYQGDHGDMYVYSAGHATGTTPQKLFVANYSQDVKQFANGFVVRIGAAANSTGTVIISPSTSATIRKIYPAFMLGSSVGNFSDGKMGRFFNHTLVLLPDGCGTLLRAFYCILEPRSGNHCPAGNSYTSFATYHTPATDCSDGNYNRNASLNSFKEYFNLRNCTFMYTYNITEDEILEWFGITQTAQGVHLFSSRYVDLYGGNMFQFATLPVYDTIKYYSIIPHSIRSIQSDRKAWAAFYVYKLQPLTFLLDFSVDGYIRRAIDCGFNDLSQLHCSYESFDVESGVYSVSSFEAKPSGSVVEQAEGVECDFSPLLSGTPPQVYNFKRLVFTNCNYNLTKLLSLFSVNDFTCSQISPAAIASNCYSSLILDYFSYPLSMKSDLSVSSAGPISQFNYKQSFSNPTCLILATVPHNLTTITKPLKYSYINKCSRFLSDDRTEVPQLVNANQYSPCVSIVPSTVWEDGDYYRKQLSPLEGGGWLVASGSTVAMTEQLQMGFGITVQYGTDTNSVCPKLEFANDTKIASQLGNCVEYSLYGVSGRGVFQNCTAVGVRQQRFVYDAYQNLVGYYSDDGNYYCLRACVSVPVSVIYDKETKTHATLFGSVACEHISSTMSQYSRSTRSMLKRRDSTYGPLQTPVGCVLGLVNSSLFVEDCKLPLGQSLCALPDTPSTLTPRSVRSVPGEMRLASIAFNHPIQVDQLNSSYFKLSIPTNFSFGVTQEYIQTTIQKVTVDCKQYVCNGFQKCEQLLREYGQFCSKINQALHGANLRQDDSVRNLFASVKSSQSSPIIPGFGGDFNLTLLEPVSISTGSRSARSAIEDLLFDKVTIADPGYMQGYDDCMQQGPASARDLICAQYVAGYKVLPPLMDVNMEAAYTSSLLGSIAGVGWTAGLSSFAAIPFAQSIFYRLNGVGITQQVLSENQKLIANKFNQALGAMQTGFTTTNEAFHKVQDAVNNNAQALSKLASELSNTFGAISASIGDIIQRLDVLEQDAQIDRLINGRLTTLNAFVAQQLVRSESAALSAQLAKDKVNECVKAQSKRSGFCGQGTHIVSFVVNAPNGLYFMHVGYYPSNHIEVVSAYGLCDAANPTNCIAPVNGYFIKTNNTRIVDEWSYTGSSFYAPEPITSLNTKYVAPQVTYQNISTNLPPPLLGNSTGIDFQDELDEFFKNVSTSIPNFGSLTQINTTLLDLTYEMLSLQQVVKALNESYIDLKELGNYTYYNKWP

B1: COV_2008 (antibody, V domains shown)
VH: QVRVVQSGAEVKNPGASVKVSCKVSGYTLTELSIHWVRQAPGNGLEWMGGFDPEDGETIYAQKFQGRVTMTEDTSTDTAYMELSSLRSDDTAVYYCATAGAITGTPRNFYYYYGMDVWGQGTTVTVSS
VL: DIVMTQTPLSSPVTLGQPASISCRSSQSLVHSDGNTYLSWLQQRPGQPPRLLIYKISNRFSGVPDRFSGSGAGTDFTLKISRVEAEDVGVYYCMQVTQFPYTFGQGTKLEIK
notes: human IgG1
B2: COV_2004 (antibody, V domains shown)
VH: QVQLVQSGAEVKKPGASVKVSCKASGYTFTGYYMHWVRQAPGQGLEWMGRINPSSGGTNYAQKFQGRVTMTRDTSISTAYMELSSLRSDDTAVYYCATDGDDGENWFDPWGQGTLVIVSS
VL: DIQMTQSPSSLSASVGDRVTITCRASQGISSWLAWYQQKPEKAPKSLIYAASSLQSGVPSRFSGSGSGTDFTLTISSLQPEDFATYYCQQYNSYPYTFGQGTKLEIK
notes: human IgG1
B3: COV_2169 (antibody, V domains shown)
VH: EVQLVESGGGVVQPGRSLRLSCAASGFTFSRYAMHWVRQAPGKGLEWVAVISYEGSNKYYADSVKGRFTISRNNSNNTLSLQMNSLRPDDTAVYYCVRSGGHYFDAFDLWGQGTMVTVSS
VL: EIVLTQSPGTLSLSPGERATLSCRASQSVSRNYVAWYQQKPGQAPRLLIYGASSRATGIPDRFSGSGSGTDFTLTISRLEPEDFALYYCQQYGSSYTFGQGTKLEIKR
notes: human IgG1
B4: COV_1184 (antibody, V domains shown)
VH: QVQLQQWGAGLLKPSETLSLTCAVYGGSFSGYYWSWIRQPPGKGLEWIGEINHSGNTTYNPSLKSRVTISVDTSKNQFSLKLSSVTAADTAVYYCARGLVITYYYDSSGKPFDPWGQGTLVTVSS
VL: not shown
notes: human IgG1
B5: COV_1177 (antibody, V domains shown)
VH: QVQLVESGGGVVQPGRSLRLSCAASGFTFSSYGMHWVRQAPGKGLEWVAVIWYDGSNKYYADSVKGRFTISRDNSKNTLYLQMNSLRAEDTAVYYCARDPLGAVAGYFDYWGQGTLVTVSS
VL: SYVLTQPPSVSVAPGQTARITCGGNNIGSKSVHWYQQKPGQAPVLVVYDDSDRPSGIPERFSGSNSGNTATLTISRVEAGDEADYYCQVWDSSSDHHWVFGGGTKLTVLG
notes: human IgG1
B6: COV_2035 (antibody, V domains shown)
VH: QVQLVQSGAEVKKPGASVKVSCKVSGYTLPELSIHWVRQAPGKGLEWLGGFDPEDGKIIYAQKFQGRVTMTEDTSTDTAYMELSSLRSEDTAVYYCATSPAVVERGWFDPWGQGTLVTVSS
VL: QSALTQPPSASGSPGQSVTISCTGTSSDVGGYNYVSWYQQHPGKAPKLMIYEVSKRPSGVPDRFSGSKSGNMASLTVSGLQAEDEANYYCSSYAGSKRVFGGGTKLTVL
notes: human IgG1
B7: COV_2103 (antibody, V domains shown)
VH: EVQLVESGGGVVQPGRSLRLSCGASGFTFSSYGIHWVRQAPGKGLDWVAVIWHDGSQKYYGDSVKGRFTISRDNSKNTLYLQMNRLRAEDTAVYYCARDSGDDYDSSGYPIGNAFDLWGQGTMVTVSS
VL: DIQMTQSPSTLSASVGDRVTITCRASQFINSWLAWYQQKPGKAPKLLIYKASSLETGVPSRFSGSGSGTEFTLTISSLQPDDFATYYCQQYNTYSFTFGPGTKVDIK
notes: human IgG1
B8: COV_2037 (antibody, V domains shown)
VH: QVQLVQSGAEVKKPGASVKVSCKVSGYTLTELSMHWVRQAPGKGLEWMGGFDPEDAETIYAQKFQGRVTMTEDTSTDTAYMELSSLRSEDTAVYYCATAGAITGTPTNYSYYYGMDFWGQGTTVTVSS
VL: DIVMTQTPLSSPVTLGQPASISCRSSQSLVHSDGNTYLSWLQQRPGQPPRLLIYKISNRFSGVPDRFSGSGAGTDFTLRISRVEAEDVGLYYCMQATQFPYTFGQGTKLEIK
notes: human IgG1
B9: COV_1145 (antibody, V domains shown)
VH: QVQLVESGGGVVQPGRSLRLSCAASGFTFSSYGMHWVRQAPGKGLEWVAVIWYDGSNKYYADSVKGRFTISRDNSKNTLYLQMNSLRVEDTAVYYCAREGQLGATGLDCWGQGTLVSVSS
VL: SYELTQPPSVSVSPGQTARITCSGDALPKKYAYWYQQKSGQAPVLVIYEDSKRPSGIPERFSGSSSGTMATLTISGAQVEDEADYYCYSTDNSGNHWVFGGGTKLTVLG
notes: human IgG1
B10: COV_2215 (antibody, V domains shown)
VH: EVQLVESGGGLVKPGGSLRLSCAASGFTFSHAWMSWVRQAPGKGLEWVGRIKSKTDGGTADYAAPVKGRFTISRDDSKNTLYLQMNSLKTEDTAVYYCATIRYYYDSSAYLNDAFDIWGQGTMVTVSS
VL: B9 VL with N92S, W97R, G100A
notes: human IgG1
B11: COV_2205 (antibody, V domains shown)
VH: EVQLVESGGGLVKPGGSLRLSCAASGFTFSDYYMIWIRQAPGEGLEWVSYISSRSSYTNYADSVKGRFTISRDNARNSLYLQMNSLRAEDTAVYYCARGQHDLLTGYYSWAYFDYWGQGTLVTVSS
VL: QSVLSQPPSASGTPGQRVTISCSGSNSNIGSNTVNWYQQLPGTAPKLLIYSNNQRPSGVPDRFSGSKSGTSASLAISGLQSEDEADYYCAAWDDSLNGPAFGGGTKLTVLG
notes: human IgG1
B12: COV_2028 (antibody, V domains shown)
VH: QVQLQESGPGLVKPSGTLSLTCVVSGGSISSSNWWSWVRQPPGKGLEWIGEIYHSGSTNYNPSLKSRVTISVDKSKNQFSLRLTSVTAADTAVYYCARGWNYDYWGQGTLVTVSS
VL: QSALTQPASVSGSPGQSITIACTGTSSDVGSYNLVSWYQQHPGKAPKLMIYEVSKRPSGLSNRFSGSKSGNTASLTISGLQAEDEADYYCYSYAGSSTWVFGGGTKLTVL
notes: human IgG1
B13: COV_2054 (antibody, V domains shown)
VH: EVQLVESGGGVLQPGRSLRLSCAASGFTFNNYALHWVRQAPGKGLEWVAVISYDGSSKYYADSVRGRLTISRDNSRNTLYLQMNSLRPEDTAIYYCARDGDGLWLGESFYFDDWGQGTLVTVSS
VL: DIQMTQSPSTLSASVGDRVIITCRASQSISSWLAWYQQKPGKAPKLLIYEASTLQSGVPSRFSGSGSGTEFTLTISSLQPDDSATYYCQQYNSYPVHFSQGTKLEIK
notes: human IgG1
B14: COV_1136 (antibody, V domains shown)
VH: EVQLVESGGGLVKPGGSLRLSCAASGFTFSDCNMNWVRQAPGKGLEWVSSISSRSSYIYYADSVKGRFTISRDNAKNSLYLQMNSLRAEDTAVYSCAREASGAYYFDRSGYFDYWGQGTLVTVSP
VL: DIQMTQSPSTLSASVGDRVTITCRASQSISSWLAWYQQKPGKAPNLLIYKASSLESGVPSRFSGSGSGTEFTLTISSLQPDDFATYYCQQYNTYPWTFGQGTKVEIKR
notes: human IgG1
B15: COV_3069 (antibody, V domains shown)
VH: EVQLVESGGGLVKPGGSLRLSCAASGFTFGSYTMNWVRQAPGKGLEWVSSIDTTSSSIYYADSLKGRFAISRDSAKNSLYLQMNRLRAEDTAVYYCARGNGHSYDSSGYHYGMYFDYWGQGTLVTVSS
VL: B14 VL with S31R, N45K, K50E, A51V, S56N, G66R, T85I, P95S, W96R
notes: human IgG1
B16: COV_1154 (antibody, V domains shown)
VH: B14 VH with T28R, C32Y, S50Y, R54S, A88G
VL: B14 VL with D81Y, T93S, T97A, I106M
notes: human IgG1
B17: COV_3129 (antibody, V domains shown)
VH: QVQLQQWGAGLLKPSDTLSLTCAANGGGSFSGYYLGYIRQSPGKGLEWIGEINHNGGTNYNPSLKSRVTISGDTSKNQFSLKLSSVTAADTAIYYCARSRDSSLGDAVWYEYWGQGTLITVSS
VL: EIVLTQSPATLSLSPGERATLSCRASQSVDIYLAWYQQRPGQAPRLLISDASKRATGVPARFSGSGSGTDFTLTINSLEPEDFAIYYCQQRRDWPINFGQGTRLEIKR
notes: human IgG1

Tests used:
[1] = molecular target: SARS-CoV-1 spike antigens (bead panel) (SARS-CoV-1, UniProt P59594 14-1195); assay: multiplex bead assay
SARS-CoV-2 NTD (1-290) = molecular target: T2, SARS-CoV-2 NTD (1-290) (SARS-CoV-2, UniProt P0DTC2 14-290); assay: BLI, 1:1 model
T2 construct: range 1-290

[2] = molecular target: T1, MERS-CoV spike antigens (bead panel); assay: multiplex bead assay

Binder	binding result [1]	Kd (SARS-CoV-2 NTD (1-290)) [pM]	binding result [2]
B1	no binding	< 1	–
B2	no binding	< 1	no binding
B3	no binding	–	no binding
B4	no binding	–	no binding
B5	no binding	–	no binding
B6	no binding	< 1	–
B7	no binding	< 1	–
B8	no binding	< 1	–
B9	no binding	–	no binding
B10	no binding	–	no binding
B11	no binding	–	no binding
B12	no binding	40.7	–
B13	no binding	< 1	–
B14	no binding	–	no binding
B15	no binding	–	no binding
B16	no binding	–	no binding
B17	no binding	–	no binding
